Laboratory results published in PMC11100570 (Science Advances, 2024).

B1: GST-Doc2B 13 to 80 (Mid-L) (domain or fragment, mouse, UniProt P70169 13-80, looked up)
chain: SIQEHMAIDVCPGPIRPIKQISDYFPRFPRGLPPTAAPRAPAPPDAPARSPAASASPRSPSDGARDDD
B2: GST-Doc2B FL (full-length Doc2B, residues 1 to 412) (natural protein, mouse, UniProt P70169 1-412, looked up)
chain: MTLRRRGEKATISIQEHMAIDVCPGPIRPIKQISDYFPRFPRGLPPTAAPRAPAPPDAPARSPAASASPRSPSDGARDDDEDVDQLFGAYGASPGPSPGPSPARPPAKPPEDEPDVDGYESDDCTALGTLDFSLLYDQENNALHCTISKAKGLKPMDHNGLADPYVKLHLLPGASKANKLRTKTLRNTLNPSWNETLTYYGITDEDMVRKTLRISVCDEDKFRHNEFIGETRVPLKKLKPNHTKTFSICLEKQLPVDKAEDKSLEERGRILISLKYSSQKQGLLVGIVRCAHLAAMDANGYSDPYVKTYLKPDVDKKSKHKTAVKKKTLNPEFNEEFCYEIKHGDLAKKTLEVTVWDYDIGKSNDFIGGVVLGINAKGERLKHWFDCLKNKDKRIERWHTLTNELPGAVLSD

What was measured:
[1] = molecular target: Munc13-1 MUN domain (residues 933 to 1407, EF, 1453 to 1531) (rat, UniProt Q62768 933-1407; Q62768 1453-1531); test: ITC
MUN W1165A = MUN W1165A (rat, UniProt Q62768 933-1407; Q62768 1453-1531, W1165A); test: pull-down

Binder | fold change of the dissociation constant against Doc2B (13 to 37) [1] [fold] | stoichiometry N [1] | binding result (MUN W1165A)
B1 | 10 |  | 
B2 | 10 | 1 | binds
